Data from patent publication US8034913B2, “Recombinantly modified plasmin” (Grifols Therapeutics Inc., priority 2004, dated 2011).
“And” between values parts separate entries of the source, which are not always exact repeats. Identical values can stand only once. Like-named read-outs stand apart in the source and are kept apart here.

T1: α2-macroglobulin (Homo sapiens, UniProt P01023)
T1 sequence (P01023 24-1474): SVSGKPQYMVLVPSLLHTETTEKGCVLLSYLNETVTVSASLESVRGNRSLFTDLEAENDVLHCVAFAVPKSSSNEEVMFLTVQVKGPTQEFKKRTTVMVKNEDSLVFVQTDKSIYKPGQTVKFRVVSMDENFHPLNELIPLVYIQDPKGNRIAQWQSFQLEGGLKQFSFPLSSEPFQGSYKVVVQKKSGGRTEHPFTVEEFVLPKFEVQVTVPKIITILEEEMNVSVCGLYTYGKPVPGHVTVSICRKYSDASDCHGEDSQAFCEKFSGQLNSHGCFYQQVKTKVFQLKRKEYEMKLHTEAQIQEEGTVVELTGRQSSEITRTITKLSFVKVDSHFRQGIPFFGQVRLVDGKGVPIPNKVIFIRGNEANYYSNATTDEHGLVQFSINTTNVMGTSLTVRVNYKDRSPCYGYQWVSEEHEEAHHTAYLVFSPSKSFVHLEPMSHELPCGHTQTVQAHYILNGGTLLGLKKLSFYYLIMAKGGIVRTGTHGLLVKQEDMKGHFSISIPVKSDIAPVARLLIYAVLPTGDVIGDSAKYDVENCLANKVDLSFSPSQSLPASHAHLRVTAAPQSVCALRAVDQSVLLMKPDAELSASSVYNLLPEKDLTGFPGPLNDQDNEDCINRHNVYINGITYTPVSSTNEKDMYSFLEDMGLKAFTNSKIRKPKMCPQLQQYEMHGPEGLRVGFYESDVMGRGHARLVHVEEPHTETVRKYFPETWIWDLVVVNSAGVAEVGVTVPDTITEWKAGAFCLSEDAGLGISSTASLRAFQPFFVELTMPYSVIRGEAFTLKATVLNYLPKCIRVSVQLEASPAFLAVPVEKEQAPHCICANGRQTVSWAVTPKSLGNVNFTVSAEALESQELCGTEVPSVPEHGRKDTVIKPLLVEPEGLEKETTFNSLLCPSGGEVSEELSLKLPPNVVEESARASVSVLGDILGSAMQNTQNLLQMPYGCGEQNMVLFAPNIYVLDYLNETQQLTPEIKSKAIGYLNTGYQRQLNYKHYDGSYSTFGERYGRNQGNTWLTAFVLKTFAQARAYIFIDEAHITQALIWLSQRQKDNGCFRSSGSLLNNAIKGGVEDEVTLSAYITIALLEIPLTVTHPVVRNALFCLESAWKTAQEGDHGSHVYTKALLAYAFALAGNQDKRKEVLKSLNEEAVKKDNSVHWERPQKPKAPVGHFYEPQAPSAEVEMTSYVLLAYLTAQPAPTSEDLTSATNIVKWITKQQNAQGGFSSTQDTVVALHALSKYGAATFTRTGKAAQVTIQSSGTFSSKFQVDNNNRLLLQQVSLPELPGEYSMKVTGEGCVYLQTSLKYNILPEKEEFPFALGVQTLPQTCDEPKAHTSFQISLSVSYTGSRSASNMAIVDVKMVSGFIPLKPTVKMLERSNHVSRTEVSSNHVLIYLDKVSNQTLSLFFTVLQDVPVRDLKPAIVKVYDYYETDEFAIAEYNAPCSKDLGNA

T2: α2-antiplasmin (Homo sapiens, UniProt P08697)
T2 sequence (P08697 40-491): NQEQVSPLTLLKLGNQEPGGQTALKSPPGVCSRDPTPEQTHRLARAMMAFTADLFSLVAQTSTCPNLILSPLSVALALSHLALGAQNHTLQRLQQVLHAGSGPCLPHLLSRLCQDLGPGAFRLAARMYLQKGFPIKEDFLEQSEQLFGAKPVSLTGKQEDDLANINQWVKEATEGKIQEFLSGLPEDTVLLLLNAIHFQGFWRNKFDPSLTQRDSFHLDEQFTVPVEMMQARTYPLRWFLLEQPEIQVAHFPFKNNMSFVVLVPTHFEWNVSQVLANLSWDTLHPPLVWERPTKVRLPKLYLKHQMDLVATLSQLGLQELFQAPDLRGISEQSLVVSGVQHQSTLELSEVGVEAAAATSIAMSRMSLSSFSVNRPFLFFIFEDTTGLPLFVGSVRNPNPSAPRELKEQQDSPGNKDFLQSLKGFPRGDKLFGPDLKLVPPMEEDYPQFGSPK

B1: micro-plasmin: plasmin species lacking all five kringles (protein)
chain: APSFDCGKPQVEPKKCPGRVVGGCVAHPHSWPWQVSLRTRFGMHFCGGTLISPEWVLTAAHCLEKSPRPSSYKVILGAHQEVNLEPHVQEIEVSRLFLEPTRKDIALLKLSSPAVITDKVIPACLPSPNYVVADRTECFITGWGETQGTFGAGLLKEAQLPVIENKVCNRYEFLNGRVQSTELCAGHLAGGTDSCQGDSGGPLVCFEKDKYILQGVTSWGLGCARPNKPGVYVRVSRFVTWIEGVMRNN
B2: plasmin: two-chain, disulfide-linked serine protease from activation of plasminogen (antibody)
heavy: EPLDDYVNTQGASLFSVTKKQLGAGSIEECAAKCEEDEEFTCRAFQYHSKEQQCVIMAENRKSSIIIRMRDVVLFEKKVYLSECKTGNGKNYRGTMSKTKNGITCQKWSSTSPHRPRFSPATHPSEGLEENYCRNPDNDPQGPWCYTTDPEKRYDYCDILECEEECMHCSGENYDGKISKTMSGLECQAWDSQSPHAHGYIPSKFPNKNLKKNYCRNPDRELRPWCFTTDPNKRWELCDIPRCTTPPPSSGPTYQCLKGTGENYRGNVAVTVSGHTCQHWSAQTPHTHNRTPENFPCKNLDENYCRNPDGKRAPWCHTTNSQVRWEYCKIPSCDSSPVSTEQLAPTAPPELTPVVQDCYHGDGQSYRGTSSTTTTGKKCQSWSSMTPHRHQKTPENYPNAGLTMNYCRNPDADKGPWCFTTDPSVRWEYCNLKKCSGTEASVVAPPPVVLLPDVETPSEEDCMFGNGKGYRGKRATTVTGTPCQDWAAQEPHRHSIFTPETNPRAGLEKNYCRNPDGDVGGPWCYTTNPRKLYDYCDVPQCAAPSFDCGKPQVEPKKCPGR
light: VVGGCVAHPHSWPWQVSLRTRFGMHFCGGTLISPEWVLTAAHCLEKSPRPSSYKVILGAHQEVNLEPHVQEIEVSRLFLEPTRKDIALLKLSSPAVITDKVIPACLPSPNYVVADRTECFITGWGETQGTFGAGLLKEAQLPVIENKVCNRYEFLNGRVQSTELCAGHLAGGTDSCQGDSGGPLVCFEKDKYILQGVTSWGLGCARPNKPGVYVRVSRFVTWIEGVMRNN
B3: mini-plasmin: activated mini-plasminogen (Val443-Asn791), fifth kringle and serine protease domain (K5-SP) (protein)
chain 1: VAPPPVVLLPDVETPSEEDCMFGNGKGYRGKRATTVTGTPCQDWAAQEPHRHSIFTPETNPRAGLEKNYCRNPDGDVGGPWCYTTNPRKLYDYCDVPQCAAPSFDCGKPQVEPKKCPGR
chain 2: B2 light

Experiments:
urokinase [1] = molecular target: T3, urokinase (Homo sapiens, UniProt P00749); test: Kinetics of urokinase activation of plasminogen species (S-2251 coupled assay, method of Wohl et al.); type: biochemical; details: 5.8 nM urokinase, 1 mM S-2251, 37° C., pH 7.5
Protocol: Increases in absorbance were monitored at 405 nm.
Activation of delta-plasminogen to delta-plasmin was complete within 3 minutes under these conditions. Very similar results were obtained with tPA and streptokinase.
Data were fit to a Michaelis-Menten kinetic model using Lineweaver-Burk analysis, resulting in the values below: […]

urokinase [2] = molecular target: T3, urokinase; details: urokinase activation; Wohl et al. 1980; read-out: Km, literature value; cited from earlier work
[3] = Amidolytic activity, steady-state kinetics with substrate S-2251; type: biochemical; details: S-2251, PBS buffer, pH 7.4, 25° C.; for kcat: delta-plasmin corrected for percent active sites
α2-macroglobulin = molecular target: T1, α2-macroglobulin; test: Rate of inhibition by α2-macroglobulin (method of Anonick et al.); type: biochemical; details: 22° C. in PBS buffer, pH 7.4
Protocol: The rate of inhibition of delta-plasmin by α2-macroglobulin was measured using the method of Anonick et al. (Anonick, P., et al., Thrombosis Res. 59:449-462 (1990)).
(§1) Literature values are taken from Anonick, et al., Thrombosis Res. 59:449 (1990). All rates were measured according to the methods published in Anonick, et al.

α2-antiplasmin [4] = molecular target: T2, α2-antiplasmin; test: Rate of inhibition by α2-antiplasmin (method of Wiman and Collen, S-2251 activity at time points); type: biochemical; details: 22° C. in PBS buffer, pH 7.4
Protocol: as §1

[5] = test system: retracted whole human blood clots; test: In vitro model of catheter-assisted thrombolysis, lysis of retracted whole-blood clots; details: single 1-ml dose injected into clot, 60 min at 37° C.; delta-plasmin 0.44 mg, plasmin 1.0 mg (equimolar)
Protocol: FIG. 11 is a graphic representation of delta-plasmin-induced lysis of retracted whole-blood clots. Each clot (0.8×7 cm) was injected with a 1 ml volume of vehicle (acidified saline, pH 3.6), plasmin (1.0 mg/ml), or delta-plasmin (0.44 mg/ml), and clot dissolution was allowed to proceed at 37° C. for 1 hour.
The thrombolytic efficacy of delta-plasmin was tested in an in vitro model of catheter-assisted thrombolysis (Novokhatny, V. et al., J Thromb Haemost., 1(5):1034-41 (2003), incorporated by reference) using the following experimental protocol.
Fresh whole human blood was collected into 20×0.95 cm glass tubes and allowed to clot spontaneously without additives. Tubes were incubated for 20 hr at 37° C. to allow full retraction. Retracted clots were separated from serum using USA Standard testing sieves D16 with 14 mesh, and their weights were determined. […]
Single 1-ml doses of acidified saline, plasmin, or delta-plasmin were injected into the clot using a syringe. […] After the incubation, the clots were placed again on the sieve to remove the liquefied material and the weight of the digested clots was measured. The extent of clot lysis was determined from the difference between the initial clot weight and the weight of residual clot and was expressed as a percent of clot weight reduction.

α2-antiplasmin [6] = molecular target: T2, α2-antiplasmin; details: literature value, Anonick et al. 1990; cited from earlier work

Molecule | Km (urokinase [1]) [µM] | kcat (urokinase [1]) [s⁻¹] | Km (urokinase [2]) [µM] | Km [3] [µM] | kcat [3] [s⁻¹] | inhibition rate by α2-macroglobulin (α2-macroglobulin) | inhibition rate by α2-antiplasmin (α2-antiplasmin [4]) | clot weight reduction [5] [%] | inhibition rate by α2-antiplasmin (lit.) (α2-antiplasmin [6]) | kcat ([3]; listed as full-length plasmin) [s⁻¹]
Plasminogen: human plasminogen, single-chain protein containing 791 amino acid residues | 1.2 | 0.0383 ± 0.005 | 1.7 |  |  |  |  |  |  | 
B1 |  |  |  | 145 | 13.2 ± 0.4 | 7.8 +/− 0.6 × 10^5 M^−1s^−1 | 1.8×10^5 M^−1s^−1 and 3.1×10^5 M^−1s^−1 and 1.8 +/− 0.2 × 10^5 M^−1s^−1 |  |  | 
B2 |  |  |  | 193 | 12.7 ± 0.383 | 6.5 +/− 0.5 × 10^5 M^−1s^−1 |  | 50 | 2.5×10^7 M^−1s^−1 and 2.5 +/− 0.5 × 10^7 M^−1s^−1 | 12.7 ± 0.383
B3 |  |  |  | 160 | 12.8 ± 1.17 | 7.5 +/− 0.3 × 10^5 M^−1s^−1 | 2.4×10^5 M^−1s^−1 and 2.4 +/− 0.5 × 10^5 M^−1s^−1 |  |  | 
